Results as given in patent publication US20160083712A1 (UNIVERSITY OF LEICESTER, published 2016).

Biological target: the molecule itself
Assay: crystal structure, PISA analysis of assemblies

B1: CSN51-257 wild type (human CSN5 residues 1-257, GST tag cleaved off) (enzyme)
chain: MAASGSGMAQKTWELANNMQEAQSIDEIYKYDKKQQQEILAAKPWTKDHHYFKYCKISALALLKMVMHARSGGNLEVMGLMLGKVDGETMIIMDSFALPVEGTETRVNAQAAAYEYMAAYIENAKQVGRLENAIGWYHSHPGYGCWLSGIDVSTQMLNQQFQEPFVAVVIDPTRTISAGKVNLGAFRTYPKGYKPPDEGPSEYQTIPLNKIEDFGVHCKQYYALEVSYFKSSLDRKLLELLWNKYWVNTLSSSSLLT
notes: Purified after cleavage by GST-3C protease; Crystallised form (PDB 4F70; SeMet-labelled for the crystal); Monomer-dimer equilibrium in solution; also called WT protein
B1: binds.
